In patent US20170158761A1 (EWHA UNIVERSITY INDUSTRY COLLABORATION FOUNDATION, published 2017):
Where no end group is shown, it is not given here.

Target: T1, Δ-dTCTP (FL deleted dimer TCTP) (Pan troglodytes (Chimpanzee), UniProt A5A6K2 1-172, disulfide bridge between the C-terminal cysteines (Cys172) of the two chains)
T1 construct: also called A-dTCTP; dimer form of FL domain-deleted TCTP
T1 sequence: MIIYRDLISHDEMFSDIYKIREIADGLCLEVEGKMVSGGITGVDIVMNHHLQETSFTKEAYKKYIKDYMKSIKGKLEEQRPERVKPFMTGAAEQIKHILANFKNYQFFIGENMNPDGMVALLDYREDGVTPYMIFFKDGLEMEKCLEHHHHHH
Experiment: ELISA: biotinylated dTBP2 (0.01 to 10 µM) on streptavidin plate, TCTP protein at 0.2 µg/ml, anti-HRF rabbit antibody detection
Method: To investigate the affinity to dTBP2 of f-TCTP, Δ-dTCTP, and Del-N11dTCTP of the present invention, biotin was conjugated to the COOH-terminus of dTBP2 known to bind to HRF, followed by purification. The purified protein was immobilized in the plastic well coated with streptavidin, to which f-TCTP, Δ-dTCTP, and Del-N11dTCTP were added. Then, the binding strength of each protein was investigated.
Particularly, 50 μL of the biotinylated dTBTP2 dissolved in a buffer (TBS [25 mM Tris, 150 mM NaCl, pH 7.2], 0.1% BSA, 0.05% Tween-20) at different concentrations of […] was added to Reacti-Bind Streptavidin Coated Polystyrene Plates (PIERCE), followed by reaction at room temperature for 2 hours. The plate was washed with a washing buffer three times. Each of f-TCTP, Δ-dTCTP, and Del-N11dTCTP was dissolved in TBS at the concentration of 0.2 μg/ml. 60 μl of the mixture was added to each well of the plate, followed by reaction for 1 hour. The plate was washed with a washing buffer three times. 100 μl of anti-HRF rabbit antibody (Bio-Rad) diluted in a buffer (1:2000) was added to each well of the plate, which stood at room temperature for 30 minutes. […] Color development was measured at 450 nm and 570 nm using an ELISA reader (Bio-Rad), and affinity was determined by the difference.

WYVYPSM-biotin (also called biotinylated dTBTP2) [biotinylated dTBP2 (dTCTP binding peptide 2)]
binding result: binds
